{
  "source": "the DeepSol protein solubility set",
  "data": [
    {"assay": "soluble on expression in E. coli; label from the status in PepcDB or PDB records", "values": [
      {"sequence": "MSTMQTELIIVSEYCQKCHIEPSFIEMLEEGGLINVRTEAGKHYLLVSELPNVERYSRMYYDLSINMEGIDAIHHMLERMDDMRREITSLRKQLLLFREREIEEADW", "soluble on expression in E. coli": "not soluble"},
      {"sequence": "MPGVEPYEPLQLMGRDVYIREGCVGCHSQQVRTLQAEVQRYGPYSVAGESVFDHPFLWGSKRTGPDLARVGERYSDEWHRIHLRDPRAVVPESNMPAYPWLQHADLTGQNVAQRMQALRRLGVPYTDEAIAAAPAAIAGKTEEDALVAYLQALG", "soluble on expression in E. coli": "not soluble"},
      {"sequence": "MSLSVAVSPLAPKSYPDMPALRGVRMATAAAGIKYKNRTDVLLMVFDKPASVAGVFTKSKCPSAPVDFCRANLGSGAARAVVVNSGNANAFTGVKGKAATELTAKSAAAAVGCSEGEIFLASTGVIGEPLDASKFAGVLGDMNVRAEADFWQEAAKAIMTTDTYPKVSTRTAEIGGVIVTINGISKGAGMIAPDMATMLSFVVTDADIEPAALQSLLSAGVGPTFNSVTVDSDTSTSDTLMLFATGAAAEDGQVKVTSADDERLSSFRAALNDLLKDLALQVVRDGEGARKMVEVTVTGAENDAAAKKIALSIANSPLVKTAVAGEDANWGRVVMAVGKSGEMADRDRLAIWFGGVRVAVNGERDPDYSEAETTAVMRLEDITVKVDIGLGQGTATVWTCDLTKEYVAINGDYRSEGHHHHHH", "soluble on expression in E. coli": "not soluble"},
      {"sequence": "MSLELDAVSRSYKRWAPIYDFSFGKVSESPRRRTAAHVNARGGRVLEVGVGTGLSLPLYSHRVAVTGIDFSHEMLARAREKVEEMGLEPVKELRQMDARELDFPDETFDTVVAMFLVSVVPEPERVVSEMARVCRKGGEVVIVNHFARDKGPLAAVEKALARFENTLGWHSDFAIERVTADPRLEVVEQTPMSPGGLFTFLRFQRREGHHHHHH", "soluble on expression in E. coli": "soluble"},
      {"sequence": "MGSDKIHHHHHHMNIYDQLQAVEDRYEELGELLSDPDVVSDTKRFMELSREEANSRETVAVYREYKQVVQNIADAQEMIKDASGDPELEEMAKEELKNSKVAKEEYEEKLRFLLLPKDPNDDKNIILEIRGAAGGDEAALFAGDLLNMYQKYAENQGWKFEVMEASANGVGGLKEVVAMVSGQSVYSKLKYESGAHRVQRVPVTESQGRVHTSTATVLVMPEVEEVEYEIDPKDLRVDIYHASGAGGQNVNKVATAVRIIHLPTNIKVEMQEERTQQKNRDKAMKIIRARVADHFAQIAQDEQDAERKSTVGTGDRSERIRTYNFPQNRVTDHRIGLTLQKLDSILSGKLDEVIDALILYDQTQKLEELNK", "soluble on expression in E. coli": "soluble"},
      {"sequence": "MLGERIMSKLSKGIKDQASGLRNLSRNKPVKVIAVSAGKGGVGKSNISVNLAIALSQLNYSVMLLDADLGLANVDIMLGLHTKYNLSHVLQGICHLSDIILHGPAGVRVIPAASGTEFMTQLSPAEHAGIIDSFNELTDDLDYMIIDTAAGISETVLSFTRSSQELIVVVCDEPTSLTDAYALIKVMSKRYEWTHFHILANMVRNVKDGRDLFNKLFRVSGQFLDVQLDYLGAIPFDENIHKSVKKQNPILIAYPDSPAAHALRELAESVSNWSFKPSLGGNTSFFLERLVAGQF", "soluble on expression in E. coli": "not soluble"},
      {"sequence": "MAAISLAKVEETAPALVSLYKSAGVSLHKHGLDGQRAAVYLVVDYSGSMRPYYKDGSVQALTDRVLGLSAHLDDDGTVPVVFFSTDIDAVTDIALADHQGHIELIVAGLGHMGKTSYHLAMDAVIDHYLDSGSKDPAFVVFQTDGGPTSKPAAERYLCKAAELPLFWQFIGFGDPGSRQFEFLRKLDELAVPHKRVVDNAGFFHAGTDPRKVSDGELYDRLVGEFPQWLAAARTHGIVRLEHHHHHH", "soluble on expression in E. coli": "not soluble"},
      {"sequence": "MATRLLRTNFIRRSYRLPAFSPVGPPTVTASTAVVPEILSFGQQAPEPPLHHPKPTEQSHDGLDLSDQARLFSSIPTSDLLRSTAVLHAAAIGPMVDLGTWVMSSKLMDASVTRGMVLGLVKSTFYDHFCAGEDADAAAERVRSVYEATGLKGMLVYGVEHADDAVSCDDNMQQFIRTIEAAKSLPTSHFSSVVVKITAICPISLLKRVSDLLRWEYKSPNFKLSWKLKSFPVFSESSPLYHTNSEPEPLTAEEERELEAAHGRIQEICRKCQESNVPLLIDAEDTILQPAIDYMAYSSAIMFNADKDRPIVYNTIQAYLRDAGERLHLAVQNAEKENVPMGFKLVRGAYMSSEASLADSLGCKSPVHDTIQDTHSCYNDCMTFLMEKASNGSGFGVVLATHNADSGRLASRKASDLGIDKQNGKIEFAQLYGMSDALSFGLKRAGFNVSKYMPFGPVATAIPYLLRRAYENRGMMATGAHDRQLMRMELKRRLIAGIA", "soluble on expression in E. coli": "not soluble"},
      {"sequence": "MKIVGIYLAAGKSRRTGPGLHKLYLPTGNTLLGNKALHTSLSSNLSDVIVVSNQPSWLLHYTQVERVHILSCEKSCLGQSYSLHCGLEKAESMNADGVVVMLADQPFITVKLLNSLIDSYEHLPQLDYVAASFQGIPQPPILFSKGIFPSLKKLKGDQGARSIFFDKSFQGKITVYSDAKLFYDVNTIEDYNVIKNSLLLEHHHHHH", "soluble on expression in E. coli": "not soluble"},
      {"sequence": "MHIDNEDALFDWLSDELSPITDADPNALAKYVLALVKKPDKGHDELKAFTNEQLNVFLTDHTAPFVDKVFEALTSKSYMPASTAPTSASATAPDLKKEKAPAEKPSKPTAPPGVQKSSSSPSASKAESRPLRKRISPPPSENREKEKQSRDKERRRSRSPRDRRGRATTSRSGRTSSSDRDRHSKRRSRSRSRSSSGSRTPPYKSRSSRRRCKDFEERGYCIRGDQCPYYHGRDPVVVDENALGSMVPLPATAPNFSLPPPGYNPLNPPPPGVVVAAGEYNPEAPALNNYSIPPPPIPGQWQQPHVAAQYVPQSVSSYSQPPPAAAQGVVTQPGSFRGAPRGRGNIRGRGGFARGGFTGAINRDNCTLQVAKIPPEMNTIAKLNEHFATFGTVDNIQVRYNGEIDSALVTYASKFDAGKAYKSPTPVLNNRFIKVFWHNPGGEGSENATGKPSSPTSPPKPVEKPKIATVQESKFVSVAAQNYRKQIQDAKERLTKEKSILSTLVQAQNQHNIILDKWMVKQKELLIKARTSTDETDKKNATKLVKHLHKKIKACKEEVDGILLKISEKSMVVDEIAAQIEELKNPQKSDDSTRKRKAGSDGDEPQSKMSSVVIVRGVTDELVTDLMAHMEKFGEVFDHSVKADDDGLITAVFPFRKTGDALKAMADGKVLNGVDLEMELKTERIEEIPSTDTNMSADQLLAAIPSNLESDEEDDLLND", "soluble on expression in E. coli": "not soluble"},
      {"sequence": "MTKVTEHLEKQLAENRVKQEEARRAREEEKQRSDNAFNNAERAFERKLEEQRKENQENQKELELEMDNSRLKHEMLYREKQKEHEDVMGAMRNASSAERSAAANMHEKELNLLRKTHESEMKNCEVQMEAIRQKGEREVRDVEDQMAKLHLERGAELDKHHKKMLKMVEKSHEDCTREKVKQHALKMLEMKNEGQRKAIEHKIVMEKLEQARGMSQRLAVNEANREVYRLFMAIMEPVNEARSNLGDIKALCDNNGEDYEDSDTACAEYYSSGIGNSRSIFDIRTNAFRDFVLNQPNCDHELVIACQTAINSMKKPMESTTIRSACTTLPRFMGEQRHLRITAILQNIDDLTSTLEAISDDVRLNFVSWKQLEIVEAVVEQKTIEKE", "soluble on expression in E. coli": "soluble"},
      {"sequence": "ADTYAATRYPVILVHGLAGTDKFANVVDYWYGIQSDLQSHGAKVYVANLSGFQSDDGPNGRGEQLLAYVKQVLAATGATKVNLIGHSQGGLTSRYVAAVAPQLVASVTTIGTPHRGSEFADFVQDVLKTDPTGLSSTVIAAFVNVFGTLVSSSHNTDQDALAALRTLTTAQTATYNRNFPSAGLGAPGSCQTGAATETVGGSQHLLYSWGGTAIQPTSTVLGVTGATDTSTGTLDVANVTDPSTLALLATGAVMINRASGQNDGLVSRCSSLFGQVISTSYHWNHLDEINQLLGVRGANAEDPVAVIRTHVNRLKLQGV", "soluble on expression in E. coli": "soluble"},
      {"sequence": "MIDKHVACERPLTVYLNWRPIVTLMTLGAKPESLALGYLKNQGFISDVSQLESVIVDWGVNSAAVLTREQTADIDKKLSEKTVTSGCGQGTVYGSFMQDLEGIQLPRPSLKQSTLYSLLKNINEYNDTYKNAGAVHGCGVCEADQILAFVEDVGRHNAVDTLAGDMWLAQDRGDNKIFYTTGRLTSEMVIKVAKMGIPVLLSRSGVTQMGLELAQNLGITIIARAKGRHFLVYHGSENLEFDVNTSPSKLEHHHHHH", "soluble on expression in E. coli": "not soluble"},
      {"sequence": "MLKYRDEKDISACGIFGIMDRKGRRFNGKLVIEAMSQMKVRGNGLGAGFAVYGLYKKFKEYYAFHVMIYDKDGREKLEKFLSTNFDIVYVDEIPVNDKAKVIDPPKFMRYFVAPRKKGTEKVLNDDDFVVKKVMYINRAIPGVYVISSGKNMGVFKGVGFPEDIADYFMIEEYKGYIWTAHTRFPTNTPGWWGGAHPFSILDWSVVHNGEISSYGTNKRYLEMYGYYSTLQTDTEVITYIFDLLVRRQGLPIEVVSKILAPPMWEEIDRMPEKEKKFYKALRMVYSPILLNGPWAIIVARHGEMIGLTDRIRLRPLTVAEKKSFLIISSEEAPIRYLFRDVDRIYTPYGGELVVGKLEEDIKKFVGESQ", "soluble on expression in E. coli": "not soluble"},
      {"sequence": "MTSYDQIWETFLNNCETSDFDVPQQEEDIYKSIRNAILHFNNRLRDNLKADNSTETVNRELSEDDLLILAHFLRYIFLLNKKTLFENTWQPFTNDVGIKNFGTQLNSLKQSVMDQKDEIERLILNAAVDYLLEHHHHHH", "soluble on expression in E. coli": "not soluble"},
      {"sequence": "SLESEGRSPIFTHLVTSLKGLWTLRAFGRQPYFETLFHKALNLHTANGGAMFSLIYKKTLKLSSRVLDKISIGQLVSLLSNNLNKFDEGGGGAINKIQDFLQKQEYKTLEYNLTTTEVVMENVTAFWEEGFGELFEKAKQNNNNRKTSNGDDSLFFSNFSLLGTPVLKDINFKIERGQLLAVAGSTGAGKTSLLMMIMGELEPSEGKIKHSGRISFCSQFSWIMPGTIKENIIFGVSYDEYRYRSVIKACQLEEDISKFAEKDNIVLGEGGITLSGGQRARISLARAVYKDADLYLLDSPFGYLDVLTEKEIFESCVCKLMANKTRILVTSKMEHLKKADKILILHEGSSYFYGTFSELQNLQPDFSSKLMG", "soluble on expression in E. coli": "soluble"},
      {"sequence": "MGSDKIHHHHHHLIYDVVIAGGGPVGLFLACELRLAGLPVLVLEQAEDPGSPLKRLPFGLRGLSAPTLEAFYRRGMLNEIAAPQRAKDDSGSSVPNAAHWMQQQRRPGGHFAGIQFYYDNIDTSKWPYRLPGPAGTSMAVEMEHIESVLTARAIALGVEIRRGLSVDGFDQSEEGVTVHAGSEIFRGRWLVGCDGGRSTVRRIGGFDFVGTDPEFTGYSVQVEMADPEKLKPGRHYTPTGMYTYQKPGTIAMVDFDGGAFHRTQPITLDHVQAVLRHISNTDVTVTALQLATTWTDRAYHATTYRKGRVLLAGDAAHIHSPLGGQGLNLGLGDAMNLGWKLAATVRDDAPAGLLDSYTSERHPVGAQVLDWSRAQVAIMRPSRSSRALEAIMRDLIDTRDGATYFAERVWGTALRYDLGSSHTLVGRSAPDFELIDGTRLGELFTKGRGLLLDFDALPSLQALASRWSDRITYVASDVKDRLGVSAVLVRPDGFVAWAGEASPNHDEATQAASQWFGKPEEEGRSPA", "soluble on expression in E. coli": "not soluble"},
      {"sequence": "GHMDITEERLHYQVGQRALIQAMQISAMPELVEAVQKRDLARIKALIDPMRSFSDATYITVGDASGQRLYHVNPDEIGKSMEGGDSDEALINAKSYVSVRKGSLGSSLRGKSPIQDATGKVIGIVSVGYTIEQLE", "soluble on expression in E. coli": "soluble"},
      {"sequence": "MGSSHHHHHHSSGLVPRGSHMFTTKLAEKVVSAWKAKISQPALKAAQDGVIDTVAAALGGVTEHSVQVALKYVAATGGSGDSKLWGVNQRSNMFDAAFVNGMAAHAIDFDDSFPVMRGHPSSSLVPAIFAVGEHVGANGHNCLKSYVLGIEVVATLGRAVGKGHYLAGWHPTSTLGVFGATTAAALLLGADEEQLRNAWGIAASNSCGIIKNFGTMTKPMHTGSAARNGVLSAWLSMQSFTGCQTVFDDAEGILAMYGAQPGPELFNAMQKFGTPWAIIAPGLYKKSWPSCYANHKPLAGLFAIMKEHGLTGQDISHVDVGFLPGVEKPLLYMDPRTTEEAKFSIEANIGAALLDGEVSLASFEIEHLDRPAMRAAMKKVTRFDMPSETTFSGTTGYTDIVVHTADGKIERRIEATPGSLEDPMDDAHLERKFKDCTAWMPFGESGLLFDRLRSLTADQGIKTVQP", "soluble on expression in E. coli": "soluble"}
    ]}
  ]
}
